# Where a SMILES comes first, the peptide text is derived from it. Bridges are numbered along the chain shown (N, C = ends). [ ]: non-standard residue; d: D form. The star is where a group is joined. ξ: configuration not given here. X1 = CC[C@@]1(OC(=O)OCCSSC[C@H](NC(C)=O)C(=O)*)C(=O)OCc2c1cc1n(c2=O)Cc2cc3ccccc3nc2-1; S(CH2)2OCO2(CPT-20-yl) = CC[C@@]1(OC(=O)OCCS*)C(=O)OCc2c1cc1n(c2=O)Cc2cc3ccccc3nc2-1; ξR = N=C(N)NCCCC(N)C(=O)O
# B1: Human MMP2 recombinant protein (protein)
# chain: APSPIIKFPGDVAPKTDKELAVQYLNTFYGCPKESCNLFVLKDTLKKMQKFFGLPQTGDLDQNTIETMRKPRCGNPDVANYNFFPRKPKWDKNQITYRIIGYTPDLDPETVDDAFARAFQVWSDVTPLRFSRIHDGEADIMINFGRWEHGDGYPFDGKDGLLAHAFAPGTGVGGDSHFDDDELWTLGEGQVVRVKYGNADGEYCKFPFLFNGKEYNSCTDTGRSDGFLWCSTTYNFEKDGKYGFCPHEALFTMGGNAEGQPCKFPFRFQGTSYDSCTTEGRTDGYRWCGTTEDYDRDKKYGFCPETAMSTVGGNSEGAPCVFPFTFLGNKYESCTSAGRSDGKMWCATTANYDDDRKWGFCPDQGYSLFLVAAHEFGHAMGLEHSQDPGALMAPIYTYTKNFRLSQDDIKGIQELYGASPDIDLGTGPTPTLGPVTPEICKQDIVFDGIAQIRGEIFFFKDRFIWRTVTPRDKPMGPLLVATFWPELPEKIDAVYEAPQEEKAVFFAGNEYWIYSASTLERGYPKPLTSLGLPPDVQRVDAAFNWSKNKKTYIFAGDKFWRYNEVKKKMDPGFPKLIADAWNAIPDNLDAVVDLQGGGHSYFFKGAYYLKLENQSLKSVKFGSIKSDWLGC
# Assays:
# [1] = In vivo hydrogel formation and degradation after subcutaneous injection; parameters: species or system C57BL/6 mice; conditions: within 45 days
# Experimental: 100 μl of 7.2 mM P-NT solution or diCPT-iRGD NT solution (5.75 mM, 100 μL) was injected into the back of C57BL/6 mice. The mice were then sacrificed at predetermined time points (1 hour, 5, 15, 30 and 45 days). The remaining hydrogel in each mouse was photographed and the amount of drug that persisted within the hydrogel was determined using HPLC.
# [2] = tested on: GL-261 tumor spheroids; test: Inhibition of tumor spheroids; type: cell-based; conditions: CPT concentration of 5 μM
# Experimental: GL-261 cells were seeded at a density of 1×10^4 cells/well into agarose coated 48-well plates. After the culture plates were incubated at 37° C. for 7 days, the spheroids were treated with free CPT, NT and P-NT at the CPT concentration of 5 μM. The tumor spheroids were photographed every two days. Growth inhibition was evaluated by measuring the size of the tumor spheroids. Volume of the tumor spheroids was calculated using the equation […], with dmax dmin representing the maximum and minimum diameter of the spheroid, respectively.
# [3] = tested on: GL-261 cells; test: Cytotoxicity assay (MTT or WST-1); type: cell-based; conditions: 48 h incubation
# Experimental: GL-261 cells (2.5×10^3 cells/well) were incubated in a 96-well plate overnight. The cells were then treated with varying concentrations of CPT or diCPT-PLGLAG-iRGD or diCPT-iRGD solutions, with untreated cells used as a control. After 48 h incubation, cell viability was tested using an MTT or WST-1 assay. The percentage of cell viability was calculated as follows: Cell Viability (%)=A570sample/A570control×100%. IC50 values of the drug formulations were analyzed using Graph Pad Prism 5.
# [4] = GSH responsive drug release of CPT prodrugs; type: in vitro ADME; conditions: presence of GSH, within 2 hours
# Experimental: Briefly, 20 mM glutathione (GSH) and 400 μM diCPT-PLGLAG-iRGD or diCPT-iRGD stock solutions were prepared in water or PBS (pH 7.4). Equal volumes of GSH and diCPT-PLGLAG-iRGD or diCPT-iRGD solutions were then mixed to reach a final GSH concentration of 10 mM and the mixtures were incubated at 37° C. Samples were then taken at predetermined time points (0, 0.5, 1, 2, 4, 8, 12 and 24 h) and quantified using HPLC.
# [5] = tested on: GL-261 tumors; test: Tumor tissue penetration, fluorescence imaging of tumor sections (NT vs NT-Sham); type: in vivo, GL-261 tumor-bearing mice; conditions: day 3 after intratumoral injection
# Source text: FIG. 39 is fluorescence imaging of tumor sections to specifically analyze the information from tumor areas of GL-261 tumor-bearing mice that intratumoral injected with NT-Sham (NTs formed from diCPT-iRGRD) or NT. The images were obtained on day 3 day after treatment. Blue: CPT (Excitation at 365 nm), Red: DRAQS™ stained nuclei, scale bar: 500 μm.
# [6] = Intratumoral retention of Cy7-labeled CDA (IVIS); type: in vivo, GL-261 tumor-bearing mice; conditions: intratumoral injection
# Experimental: At predetermined time points, fluorescence images were recorded by an IVIS Spectrum imaging system (Perkin Elmer).
# [7] = molecular target: diCPT-PLGLAG-iRGD
molecule,measurement,setting,value
CC[C@@]1(OC(=O)OCCSSC[C@H](NC(C)=O)C(=O)NCCCC[C@H](NC(=O)[C@H](CSSCCOC(=O)O[C@]2(CC)C(=O)OCc3c2cc2n(c3=O)Cc3cc4ccccc4nc3-2)NC(C)=O)C(=O)N[C@H]2CSSC[C@@H](C(N)=O)NC(=O)[C@H](CC(=O)O)NC(=O)[C@@H]3CCCN3C(=O)CNC(=O)C(CCCNC(=N)N)NC(=O)[C@H](CC(=O)O)NC(=O)CNC(=O)[C@H](CCCNC(=N)N)NC2=O)C(=O)OCc2c1cc1n(c2=O)Cc2cc3ccccc3nc2-1 (stereo partly shown) [diCPT-iRGD] (Ac-C(S(CH2)2OCO2(CPT-20-yl))K(X1)CRGD[ξR]GPDC-NH2; disulfide 3-11),hydrogel degraded,[1],approximately 75%
same,cytotoxicity against 3D tumor spheroids,[2],potent cytotoxicity
same,cytotoxicity against GL-261 brain tumor cells,[3],potent cytotoxicity
same,free CPT released,[4],~100%
same,CPT fluorescence at the tumor periphery,[5],distinct CPT fluorescence can be observed throughout the tumor and even at the tumor periphery
"Nc1ncnc2c1ncn2[C@@H]1O[C@@H]2COP(O)(=S)O[C@@H]3C(O)[C@@H](COP(O)(=S)O[C@H]2[C@H]1O)O[C@H]3n1cnc2c(N)ncnc21 (stereo partly shown) [free CDA, 2′3′-c-di-AM(PS)2 (Rp,Rp)]",CDA fluorescence signal in tumors,[6],virtually no fluorescence signal observed five days after injection
B1,"degradation of diCPT-PLGLAG-iRGD by MMP-2 (HPLC, 200 uM conjugate, 2 ug/ml MMP-2, 37 C)",[7],54% cleaved after 8 hours

# Source: patent publication US20230218771A1, “SELF-ASSEMBLING PRODRUGS AS IMMUNE BOOSTERS FOR CANCER IMMUNOTHERAPY” (priority 2020, published 2023)
